Source: patent publication US20220119534A1 (DRAGONFLY THERAPEUTICS, published 2022)

T1: human CLEC12A on cells (HL60, PL21, Ba/F3-hCLEC12A) (human, UniProt Q5QGZ9 1-265)
T1 construct: Endogenous on the AML lines HL60 and PL21; brought into mouse Ba/F3 cells by retroviral transduction; The cell line stands under assay; also called CLL-1
T1 sequence: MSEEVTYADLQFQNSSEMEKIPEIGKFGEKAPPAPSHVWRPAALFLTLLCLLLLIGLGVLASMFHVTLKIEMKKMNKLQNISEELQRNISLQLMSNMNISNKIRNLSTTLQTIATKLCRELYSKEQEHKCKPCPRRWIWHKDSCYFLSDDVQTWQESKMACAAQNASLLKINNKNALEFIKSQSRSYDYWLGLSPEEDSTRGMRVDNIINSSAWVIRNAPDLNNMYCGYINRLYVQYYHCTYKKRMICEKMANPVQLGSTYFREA

T2: recombinant human CLEC12A-His (human, UniProt Q5QGZ9 65-265)
T2 construct: also called hCLEC12A-His; hCLEC12A
T2 sequence: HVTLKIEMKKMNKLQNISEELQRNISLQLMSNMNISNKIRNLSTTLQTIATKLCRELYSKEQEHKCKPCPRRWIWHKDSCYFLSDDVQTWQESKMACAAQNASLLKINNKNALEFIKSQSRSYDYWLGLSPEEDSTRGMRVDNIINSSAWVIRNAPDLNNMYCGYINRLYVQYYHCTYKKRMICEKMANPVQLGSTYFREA


How the values were obtained:
[1] = molecular target: T1, human CLEC12A on cells (HL60, PL21, …); experiment: flow cytometry, HL60 cells
Procedure: (§1) 100,000 cells were seeded per well into a 96-well plate for FACS staining. Cells were washed with PBS. Cells were incubated in a 1:2000 dilution of live/dead dye in PBS for 15 minutes, then washed with FACS buffer. TriNKETs or mAbs were diluted into FACS buffer, and 50 μl containing diluted TriNKET or mAb was added to cells. Cells were incubated on ice for 20 minutes. After the incubation, cells were washed with FACS buffer. Anti-human IgG-Fc secondary antibody was diluted into FACS buffer, and 50 μl was added per well for detection of the bound TriNKETs or mAbs. Cells were incubated for 20 minutes on ice, then washed with FACS buffer. 50 μl of fixation buffer was added to each well, and cells were incubated for 10 minutes at room temperature. Cells were washed with FACS buffer and resuspended in FACS buffer for analysis with BD FACS Celesta SN #H66034400085, or BD FACS Celesta SN #H66034400160. Cells of interest were identified using FSC vs. SSC plot, and an appropriately shaped gate was drawn around the cells. Within the gated cells, doublet cells were removed by viewing FSC-H vs FSC-A plot. Within the single cell population, live cells were gated. Within the live gate, the mean fluorescence intensity (MFI) of each sample and the secondary-only control was calculated. Fold-over-background (FOB) was calculated as the ratio of test article MFI over secondary-only background MFI. Data were fit to a four-parameter non-linear regression curve using GraphPad Prism 7.0.

[2] = molecular target: T1, human CLEC12A on cells (HL60, PL21, …); experiment: flow cytometry, PL21 cells
Procedure: as §1

[3] = molecular target: T1, human CLEC12A on cells (HL60, PL21, …); experiment: flow cytometry, Ba/F3-hCLEC12A cells
Procedure: as §1

[4] = molecular target: T2, recombinant human CLEC12A-His; experiment: SPR screening, semi-purified

Binder | EC50 [1] [nM] | FOB (fold over background) [1] [fold] | EC50 [2] [nM] | FOB (fold over background) [2] [fold] | EC50 [3] [nM] | FOB (fold over background) [3] [fold] | Kd [4] [nM] | koff [4] [s⁻¹] | kon [4] [M⁻¹ s⁻¹]
AB0300 (other, name in EU numbering, Positions are EU numbers, not positions counted on the entries; also called AB0237si) QLQLQESGPGLVKPSETLSLTCTVSGFSLTNYGLHWIRQPPGKCLEWIGVIWSGGKTDYNPSLKSRVTISKDTSKNQFSLKLSSVQAADTAVYYCAKYDYDDSLDYWGQGTLVTVSSGGGGSGGGGSGGGGSGGGGSDIQMTQSPSSLSASVGDRVTITCHASQNINFWLSWYQQKPGKAPKLLIYEASNLHTGVPSRFSGSGSGTRFTLTISSLQPEDIATYYCQQSHSYPLTFGCGTKLEIKGSDKTHTCPPCPAPEAAGGPSVFLFPPKPKDTLMISRTPEVTCVVVDVSHEDPEVKFNWYVDGVEVHNAKTKPREEQYNSTYRVVSVLTVLHQDWLNGKEYKCKVSNKALGAPIEKTISKAKGQPREPRVYTLPPCRDELTKNQVSLTCLVKGFYPSDIAVEWESNGQPENNYKTTPPVLVSDGSFTLYSKLTVDKSRWQQGNVFSCSVMHEALHNHYTQKSLSLSPG heavy: EVQLVESGGGLVKPGGSLRLSCAASGFTFSSYSMNWVRQAPGKGLEWVSSISSSSSYIYYADSVKGRFTISRDNAKNSLYLQMNSLRAEDTAVYYCARGAPIGAAAGWFDPWGQGTLVTVSSASTKGPSVFPLAPSSKSTSGGTAALGCLVKDYFPEPVTVSWNSGALTSGVHTFPAVLQSSGLYSLSSVVTVPSSSLGTQTYICNVNHKPSNTKVDKKVEPKSCDKTHTCPPCPAPEAAGGPSVFLFPPKPKDTLMISRTPEVTCVVVDVSHEDPEVKFNWYVDGVEVHNAKTKPREEQYNSTYRVVSVLTVLHQDWLNGKEYKCKVSNKALGAPIEKTISKAKGQPREPQVCTLPPSRDELTENQVSLTCLVKGFYPSDIAVEWESNGQPENNYKTTPPVLDSDGSFFLYSWLTVDKSRWQQGNVFSCSVMHEALHNHYTQKSLSLSPG light: DIQMTQSPSSVSASVGDRVTITCRASQGISSWLAWYQQKPGKAPKLLIYAASSLQSGVPSRFSGSGSGTDFTLTISSLQPEDFATYYCQQGVSFPRTFGGGTKVEIKRTVAAPSVFIFPPSDEQLKSGTASVVCLLNNFYPREAKVQWKVDNALQSGNSQESVTEQDSKDSTYSLSSTLTLSKADYEKHKVYACEVTHQGLSSPVTKSFNRGEC | 1.5 | 65 | 1.58 | 18 | 2.92 | 368 | – | – | –
AB0237-Dead-2D (other, also called AB0237 NKG2D dead arm variant) QLQLQESGPGLVKPSETLSLTCTVSGFSLTNYGLHWIRQPPGKCLEWIGVIWSGGKTDYNPSLKSRVTISKDTSKNQFSLKLSSVQAADTAVYYCAKYDYDDSLDYWGQGTLVTVSSGGGGSGGGGSGGGGSGGGGSDIQMTQSPSSLSASVGDRVTITCHASQNINFWLSWYQQKPGKAPKLLIYEASNLHTGVPSRFSGSGSGTRFTLTISSLQPEDIATYYCQQSHSYPLTFGCGTKLEIKGSDKTHTCPPCPAPELLGGPSVFLFPPKPKDTLMISRTPEVTCVVVDVSHEDPEVKFNWYVDGVEVHNAKTKPREEQYNSTYRVVSVLTVLHQDWLNGKEYKCKVSNKALPAPIEKTISKAKGQPREPRVYTLPPCRDELTKNQVSLTCLVKGFYPSDIAVEWESNGQPENNYKTTPPVLVSDGSFTLYSKLTVDKSRWQQGNVFSCSVMHEALHNHYTQKSLSLSPG heavy: EVQLVESGGGLVKPGGSLRLSCAASGFTFSSYSMNWVRQAPGKGLEWVSSISSSSSYIYYADSVKGRFTISRDNAKNSLYLQMNSLRAEDTAVYYCARGAPIGAAAGWFDPWGQGTLVTVSSASTKGPSVFPLAPSSKSTSGGTAALGCLVKDYFPEPVTVSWNSGALTSGVHTFPAVLQSSGLYSLSSVVTVPSSSLGTQTYICNVNHKPSNTKVDKKVEPKSCDKTHTCPPCPAPELLGGPSVFLFPPKPKDTLMISRTPEVTCVVVDVSHEDPEVKFNWYVDGVEVHNAKTKPREEQYNSTYRVVSVLTVLHQDWLNGKEYKCKVSNKALPAPIEKTISKAKGQPREPQVCTLPPSRDELTENQVSLTCLVKGFYPSDIAVEWESNGQPENNYKTTPPVLDSDGSFFLYSWLTVDKSRWQQGNVFSCSVMHEALHNHYTQKSLSLSPG light: DIQMTQSPSTLSASVGDRVTITCRASNSISSWLAWYQQKPGKAPKLLIYEASSTKSGVPSRFSGSGSGTEFTLTISSLQPDDFATYYCQQYDDLPTFGGGTKVEIKRTVAAPSVFIFPPSDEQLKSGTASVVCLLNNFYPREAKVQWKVDNALQSGNSQESVTEQDSKDSTYSLSSTLTLSKADYEKHKVYACEVTHQGLSSPVTKSFNRGEC | 1.19 | 59 | 0.63 | 14 | 2.35 | 357 | – | – | –
AB0188 (other, As AB0185) DIKMTQSPSSLSASVGDRVTITCKASQDIYNYLSWFQQKPGKAPKPLIYRANILVSGVPSRFSGSGSGQDYTLTISSLQPEDIATYYCLQFDAFPFTFGCGTKLEIKGGGGSGGGGSGGGGSGGGGSEVQLVESGGGVVQPGGSLRLSCAASGFTFNSFGMHWVRQAPGKCLEWVAFISSGSTSIYYANTVKGRFTISRDNSKNTLYLQMNSLRAEDTAVYYCARDGYPTGGAMDYWGQGTSVTVSSGSDKTHTCPPCPAPELLGGPSVFLFPPKPKDTLMISRTPEVTCVVVDVSHEDPEVKFNWYVDGVEVHNAKTKPREEQYNSTYRVVSVLTVLHQDWLNGKEYKCKVSNKALPAPIEKTISKAKGQPREPRVYTLPPCRDELTKNQVSLTCLVKGFYPSDIAVEWESNGQPENNYKTTPPVLVSDGSFTLYSKLTVDKSRWQQGNVFSCSVMHEALHNHYTQKSLSLSPG heavy: EVQLVESGGGLVKPGGSLRLSCAASGFTFSSYSMNWVRQAPGKGLEWVSSISSSSSYIYYADSVKGRFTISRDNAKNSLYLQMNSLRAEDTAVYYCARGAPIGAAAGWFDPWGQGTLVTVSSASTKGPSVFPLAPSSKSTSGGTAALGCLVKDYFPEPVTVSWNSGALTSGVHTFPAVLQSSGLYSLSSVVTVPSSSLGTQTYICNVNHKPSNTKVDKKVEPKSCDKTHTCPPCPAPELLGGPSVFLFPPKPKDTLMISRTPEVTCVVVDVSHEDPEVKFNWYVDGVEVHNAKTKPREEQYNSTYRVVSVLTVLHQDWLNGKEYKCKVSNKALPAPIEKTISKAKGQPREPQVCTLPPSRDELTENQVSLTCLVKGFYPSDIAVEWESNGQPENNYKTTPPVLDSDGSFFLYSWLTVDKSRWQQGNVFSCSVMHEALHNHYTQKSLSLSPG light: DIQMTQSPSSVSASVGDRVTITCRASQGISSWLAWYQQKPGKAPKLLIYAASSLQSGVPSRFSGSGSGTDFTLTISSLQPEDFATYYCQQGVSFPRTFGGGTKVEIKRTVAAPSVFIFPPSDEQLKSGTASVVCLLNNFYPREAKVQWKVDNALQSGNSQESVTEQDSKDSTYSLSSTLTLSKADYEKHKVYACEVTHQGLSSPVTKSFNRGEC | – | – | – | – | – | – | 1.58 | 0.000901 | 569000
hcFAE-A49.h6E7 (Duobody TriNKET) (bispecific antibody, V domains shown, also called Duobody TriNKET based on h6E7 antibody from Genentech) VH 1: EVQLVQSGAEVKKPGASVKVSCKASGYSFTDYYMHWVRQAPGQGLEWIGRINPYNGAAFYSQNFKDRVTLTVDTSTSTAYLELSSLRSEDTAVYYCAIERGADLEGYAMDYWGQGTLVTVSS VL 1: DIQMTQSPSSLSASVGDRVTITCRASQSVSTSSYNYMHWYQQKPGKPPKLLIKYASNLESGVPSRFSGSGSGTDFTLTISSLQPEDFATYYCQHSWEIPLTFGQGTKVEIK VH 2: EVQLVESGGGLVKPGGSLRLSCAASGFTFSSYSMNWVRQAPGKGLEWVSSISSSSSYIYYADSVKGRFTISRDNAKNSLYLQMNSLRAEDTAVYYCARGAPMGAAAGWFDPWGQGTLVTVSS VL 2: DIQMTQSPSSVSASVGDRVTITCRASQGISSWLAWYQQKPGKAPKLLIYAASSLQSGVPSRFSGSGSGTDFTLTISSLQPEDFATYYCQQGVSFPRTFGGGTKVEIK | 1.33 | 31 | 0.55 | 10 | 2.87 | 318 | – | – | –
hcFAE-A49.CLL1-Merus (Duobody TriNKET) (bispecific antibody, V domains shown, Duobody format; also called Duobody TriNKET based on CLL1 antibody from Merus) VH 1: EVQLVQSGAEVKKPGASVKVSCKASGYTFTSYYMHWVRQAPGQGLEWMGIINPSGGSTSYAQKFQGRVTMTRDTSTSTVYMELSSLRSEDTAVYYCARGNYGDEFDYWGQGTLVTVSS VL 1: not shown VH 2: EVQLVESGGGLVKPGGSLRLSCAASGFTFSSYSMNWVRQAPGKGLEWVSSISSSSSYIYYADSVKGRFTISRDNAKNSLYLQMNSLRAEDTAVYYCARGAPMGAAAGWFDPWGQGTLVTVSS VL 2: DIQMTQSPSSVSASVGDRVTITCRASQGISSWLAWYQQKPGKAPKLLIYAASSLQSGVPSRFSGSGSGTDFTLTISSLQPEDFATYYCQQGVSFPRTFGGGTKVEIK | 2.79 | 59 | 1.13 | 15 | 4.45 | 369 | – | – | –
